T1: GmZF1 (GST fusion) (Glycine max (soybean), UniProt Q4FH86 1-172)
T1 sequence: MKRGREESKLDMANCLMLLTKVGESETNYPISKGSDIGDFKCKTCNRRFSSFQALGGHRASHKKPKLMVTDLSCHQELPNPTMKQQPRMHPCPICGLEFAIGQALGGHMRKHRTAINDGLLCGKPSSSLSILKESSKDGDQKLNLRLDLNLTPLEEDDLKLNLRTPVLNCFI

B1: E2 (mutant EP1S, base substitution) (dsDNA)
DNA 1: TTCAGAGTGTCACTTCAGAGTGTCACTTCAGAGTGTCACTTCAGAGTGTCAC
DNA 2: GTGACACTCTGAAGTGACACTCTGAAGTGACACTCTGAAGTGACACTCTGAA
B2: E1 (wild-type EP1S, 4 copies) (dsDNA)
DNA 1: TTGACAGTGTCACTTGACAGTGTCACTTGACAGTGTCACTTGACAGTGTCAC
DNA 2: GTGACACTGTCAAGTGACACTGTCAAGTGACACTGTCAAGTGACACTGTCAA

Molecular target: T1, GmZF1 (GST fusion)
Test: EMSA; 20 µL binding buffer with 32P-labelled probe, glycerine and 0.2 µg purified protein; 6% polyacrylamide gel in TBE (printed as 0.53, probably 0.5x); salt, pH and temperature not stated
Conditions: protein: recombinant; tags: GST (pGEX-4T-1); label: 32P

Row | Binder | binding result
1 | B1 | binds
2 | B2 | binds
